# Tested on: ADGRF1
# Test: Cell-surface expression by flow cytometry, ADGRF1
# Assay type: cell-based, human
# Conditions: ADGRF1 constructs (pF1 Gi part of table), anti-Flag antibody, three independent measurements in duplicate
# Protocol: The wild-type ADGRD1 and ADGRF1 and mutants used in functional studies were constructed into a pTT5 vector with a Flag tag at the N terminus for receptor expression measurement. The basal activity of ADGRD1 and ADGRF1 in mediating Gs signalling was measured by a cAMP accumulation assay using a LANCE Ultra cAMP detection kit (PerkinElmer) following the manufacturer’s instruction. In brief, 2 ml HEK293F cells (Invitrogen; cells were routinely tested for mycoplasma contamination) at a density of 1.2 × 10^6 cells per ml were transiently transfected with 2,000 ng plasmid of the wild-type or mutant receptor and cultured at 37 °C for 48 h with 5% CO2 atmosphere in a shaker shaking at 220 rpm. After collection, the cell-surface expression of the receptors was measured by incubating 10 μl cells with 15 μl monoclonal anti-Flag M2-FITC antibody (Sigma; 1:120 diluted in TBS supplemented with 4% BSA and 20% viability staining solution 7-AAD (Invitrogen)) at 4 °C for 20 min. After incubation, 175 μl TBS buffer was added and the fluorescent signal was measured using a flow cytometry reader (Guava easyCyte HT, Millipore).
row,Molecule,Cell-surface expression (% of WT)
1,"W804^6.53bA (protein, UniProt Q5T601 20-910, looked up, variant W804A) Adhesion G-protein coupled …: GFLGKNDGIKTKKELIVNKKKHLGPVEEYQLLLQVTYRDSKEKRDLRNFLKLLKPPLLWSHGLIRIIRAKATTDCNSLNGVLQCTCEDSYTWFPPSCLDPQNCYLHTAGALPSCECHLNNLSQSVNFCERTKIWGTFKINERFTNDLLNSSSAIYSKYANGIEIQLKKAYERIQGFESVQVTQFRNGSIVAGYEVVGSSSASELLSAIEHVAEKAKTALHKLFPLEDGSFRVFGKAQCNDIVFGFGSKDDEYTLPCSSGYRGNITAKCESSGWQVIRETCVLSLLEELNKNFSMIVGNATEAAVSSFVQNLSVIIRQNPSTTVGNLASVVSILSNISSLSLASHFRVSNSTMEDVISIADNILNSASVTNWTVLLREEKYASSRLLETLENISTLVPPTALPLNFSRKFIDWKGIPVNKSQLKRGYSYQIKMCPQNTSIPIRGRVLIGSDQFQRSLPETIISMASLTLGNILPVSKNGNAQVNGPVISTVIQNYSINEVFLFFSKIESNLSQPHCVFWDFSHLQWNDAGCHLVNETQDIVTCQCTHLTSFSILMSPFVPSTIFPVVKWITYVGLGISIGSLILCLIIEALFWKQIKKSQTSHTRRICMVNIALSLLIADVWFIVGATVDTTVNPSGVCTAAVFFTHFFYLSLFFWMLMLGILLAYRIILVFHHMAQHLMMAVGFCLGYGCPLIISVITIAVTQPSNTYKRKDVCWLNWSNGSKPLLAFVVPALAIVAVNFVVVLLVLTKLWRPTVGERLSRDDKATIIRVGKSLLILTPLLGLTAGFGIGTIVDSQNLAWHVIFALLNAFQGFFILCFGILLDSKLRQLLFNKLSALSSWKQTEKQNSSDLSAKPKFSKPFNPLQNKGHYAFSHTGDSSDNIMLTQFVSNE",93 ± 4 % of WT
2,"N827^7.46bA (protein, UniProt Q5T601 20-910, looked up, variant N827A) Adhesion G-protein coupled …: GFLGKNDGIKTKKELIVNKKKHLGPVEEYQLLLQVTYRDSKEKRDLRNFLKLLKPPLLWSHGLIRIIRAKATTDCNSLNGVLQCTCEDSYTWFPPSCLDPQNCYLHTAGALPSCECHLNNLSQSVNFCERTKIWGTFKINERFTNDLLNSSSAIYSKYANGIEIQLKKAYERIQGFESVQVTQFRNGSIVAGYEVVGSSSASELLSAIEHVAEKAKTALHKLFPLEDGSFRVFGKAQCNDIVFGFGSKDDEYTLPCSSGYRGNITAKCESSGWQVIRETCVLSLLEELNKNFSMIVGNATEAAVSSFVQNLSVIIRQNPSTTVGNLASVVSILSNISSLSLASHFRVSNSTMEDVISIADNILNSASVTNWTVLLREEKYASSRLLETLENISTLVPPTALPLNFSRKFIDWKGIPVNKSQLKRGYSYQIKMCPQNTSIPIRGRVLIGSDQFQRSLPETIISMASLTLGNILPVSKNGNAQVNGPVISTVIQNYSINEVFLFFSKIESNLSQPHCVFWDFSHLQWNDAGCHLVNETQDIVTCQCTHLTSFSILMSPFVPSTIFPVVKWITYVGLGISIGSLILCLIIEALFWKQIKKSQTSHTRRICMVNIALSLLIADVWFIVGATVDTTVNPSGVCTAAVFFTHFFYLSLFFWMLMLGILLAYRIILVFHHMAQHLMMAVGFCLGYGCPLIISVITIAVTQPSNTYKRKDVCWLNWSNGSKPLLAFVVPALAIVAVNFVVVLLVLTKLWRPTVGERLSRDDKATIIRVGKSLLILTPLLGLTWGFGIGTIVDSQNLAWHVIFALLAAFQGFFILCFGILLDSKLRQLLFNKLSALSSWKQTEKQNSSDLSAKPKFSKPFNPLQNKGHYAFSHTGDSSDNIMLTQFVSNE",97 ± 21 % of WT
3,"H820^7.39bA (protein, UniProt Q5T601 20-910, looked up, variant H820A) Adhesion G-protein coupled …: GFLGKNDGIKTKKELIVNKKKHLGPVEEYQLLLQVTYRDSKEKRDLRNFLKLLKPPLLWSHGLIRIIRAKATTDCNSLNGVLQCTCEDSYTWFPPSCLDPQNCYLHTAGALPSCECHLNNLSQSVNFCERTKIWGTFKINERFTNDLLNSSSAIYSKYANGIEIQLKKAYERIQGFESVQVTQFRNGSIVAGYEVVGSSSASELLSAIEHVAEKAKTALHKLFPLEDGSFRVFGKAQCNDIVFGFGSKDDEYTLPCSSGYRGNITAKCESSGWQVIRETCVLSLLEELNKNFSMIVGNATEAAVSSFVQNLSVIIRQNPSTTVGNLASVVSILSNISSLSLASHFRVSNSTMEDVISIADNILNSASVTNWTVLLREEKYASSRLLETLENISTLVPPTALPLNFSRKFIDWKGIPVNKSQLKRGYSYQIKMCPQNTSIPIRGRVLIGSDQFQRSLPETIISMASLTLGNILPVSKNGNAQVNGPVISTVIQNYSINEVFLFFSKIESNLSQPHCVFWDFSHLQWNDAGCHLVNETQDIVTCQCTHLTSFSILMSPFVPSTIFPVVKWITYVGLGISIGSLILCLIIEALFWKQIKKSQTSHTRRICMVNIALSLLIADVWFIVGATVDTTVNPSGVCTAAVFFTHFFYLSLFFWMLMLGILLAYRIILVFHHMAQHLMMAVGFCLGYGCPLIISVITIAVTQPSNTYKRKDVCWLNWSNGSKPLLAFVVPALAIVAVNFVVVLLVLTKLWRPTVGERLSRDDKATIIRVGKSLLILTPLLGLTWGFGIGTIVDSQNLAWAVIFALLNAFQGFFILCFGILLDSKLRQLLFNKLSALSSWKQTEKQNSSDLSAKPKFSKPFNPLQNKGHYAFSHTGDSSDNIMLTQFVSNE",77 ± 1 % of WT
4,"M675^3.47bA (protein, UniProt Q5T601 20-910, looked up, variant M675A) Adhesion G-protein coupled …: GFLGKNDGIKTKKELIVNKKKHLGPVEEYQLLLQVTYRDSKEKRDLRNFLKLLKPPLLWSHGLIRIIRAKATTDCNSLNGVLQCTCEDSYTWFPPSCLDPQNCYLHTAGALPSCECHLNNLSQSVNFCERTKIWGTFKINERFTNDLLNSSSAIYSKYANGIEIQLKKAYERIQGFESVQVTQFRNGSIVAGYEVVGSSSASELLSAIEHVAEKAKTALHKLFPLEDGSFRVFGKAQCNDIVFGFGSKDDEYTLPCSSGYRGNITAKCESSGWQVIRETCVLSLLEELNKNFSMIVGNATEAAVSSFVQNLSVIIRQNPSTTVGNLASVVSILSNISSLSLASHFRVSNSTMEDVISIADNILNSASVTNWTVLLREEKYASSRLLETLENISTLVPPTALPLNFSRKFIDWKGIPVNKSQLKRGYSYQIKMCPQNTSIPIRGRVLIGSDQFQRSLPETIISMASLTLGNILPVSKNGNAQVNGPVISTVIQNYSINEVFLFFSKIESNLSQPHCVFWDFSHLQWNDAGCHLVNETQDIVTCQCTHLTSFSILMSPFVPSTIFPVVKWITYVGLGISIGSLILCLIIEALFWKQIKKSQTSHTRRICMVNIALSLLIADVWFIVGATVDTTVNPSGVCTAAVFFTHFFYLSLFFWALMLGILLAYRIILVFHHMAQHLMMAVGFCLGYGCPLIISVITIAVTQPSNTYKRKDVCWLNWSNGSKPLLAFVVPALAIVAVNFVVVLLVLTKLWRPTVGERLSRDDKATIIRVGKSLLILTPLLGLTWGFGIGTIVDSQNLAWHVIFALLNAFQGFFILCFGILLDSKLRQLLFNKLSALSSWKQTEKQNSSDLSAKPKFSKPFNPLQNKGHYAFSHTGDSSDNIMLTQFVSNE",107 ± 2 % of WT

# Reference: article PMC9046087, “Structural basis of tethered agonism of the adhesion GPCRs ADGRD1 and ADGRF1” (Nature, 2022)
